This passage reports Kd results from US20240181125A1 (published 2024).

Primed or numbered codes have the meaning given here. Ends that are not written are not given here. FITC′ = not defined here

Common to all, as to assay: ELISA-like binding assay
(In an ELISA, binding on a coated surface is turned into a signal by an enzyme label.)

The target of test [1] is T1, TGFβ receptor I (TβR1), R&D, coated on ELISA plate.
T1 chain: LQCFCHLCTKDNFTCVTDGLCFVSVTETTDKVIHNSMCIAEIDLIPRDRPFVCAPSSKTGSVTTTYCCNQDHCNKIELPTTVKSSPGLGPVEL

The next test concerns the target TβR3.
The target of a further test is IgG.

B1: peptide-based TGFβ receptor II inhibitor (PTβR2I), ECGLLPVGRPDRVWRLCK-FITC (peptide)
peptide: ECGLLPVGRPDRVWRLCK-{FITC′}
modifications: cysteine pairing not given here
Turning to B1, the affinity in test [1], expressed as Kd, was 35.2 µM.

B2: PTβR2I (peptide)
peptide: ECGLLPVGRPDRVWRLCK-{FITC′}
modifications: cysteine pairing not given here
Turning to B2, the figures for the Kd with TβR3 and in the test with IgG were 41.1 µM and 83 µM, respectively.
